{"source": "patent EP4792821A2", "about": "(Beijing Youcare Kechuang Pharmaceutical Technology Co., Ltd., dated 2026)", "binders": {"B1": {"name": "Compound 25 (peptide)", "peptide": "Ac-YDELVFDASQVNEKINQSLEKIRKSDELLHNVGSGSGK([Suc-Succinyl(4-O-cholesteryl)])-NH2"}, "B2": {"name": "Compound 50 (peptide)", "peptide": "Ac-SLEQVNEKINQSLAFIRKSDEINQSDEEVNKSDELLEAAAKK-NH2"}, "B3": {"name": "Compound 20 (peptide)", "peptide": "Ac-SDEFDKKIEEVNKKIEESLKKIEESDKKLGSGSGK([Suc-Succinyl(4-O-cholesteryl)])-NH2"}, "B4": {"name": "Compound 45 (peptide)", "peptide": "Ac-WDEFDASISQVNEKINQSLEEIRKSDELLHNEAAAKK(Succinyl(4-O-cholesteryl))-NH2", "SMILES": "CC[C@H](C)[C@H](NC(=O)[C@H](CO)NC(=O)[C@H](C)NC(=O)[C@H](CC(=O)O)NC(=O)[C@H](Cc1ccccc1)NC(=O)[C@H](CCC(=O)O)NC(=O)[C@H](CC(=O)O)NC(=O)[C@H](Cc1c[nH]c2ccccc12)NC(C)=O)C(=O)N[C@@H](CO)C(=O)N[C@@H](CCC(N)=O)C(=O)N[C@H](C(=O)N[C@@H](CC(N)=O)C(=O)N[C@@H](CCC(=O)O)C(=O)N[C@@H](CCCCN)C(=O)N[C@H](C(=O)N[C@@H](CC(N)=O)C(=O)N[C@@H](CCC(N)=O)C(=O)N[C@@H](CO)C(=O)N[C@@H](CC(C)C)C(=O)N[C@@H](CCC(=O)O)C(=O)N[C@@H](CCC(=O)O)C(=O)N[C@H](C(=O)N[C@@H](CCCNC(=N)N)C(=O)N[C@@H](CCCCN)C(=O)N[C@@H](CO)C(=O)N[C@@H](CC(=O)O)C(=O)N[C@@H](CCC(=O)O)C(=O)N[C@@H](CC(C)C)C(=O)N[C@@H](CC(C)C)C(=O)N[C@@H](Cc1c[nH]cn1)C(=O)N[C@@H](CC(N)=O)C(=O)N[C@@H](CCC(=O)O)C(=O)N[C@@H](C)C(=O)N[C@@H](C)C(=O)N[C@@H](C)C(=O)N[C@@H](CCCCN)C(=O)N[C@@H](CCCCNC(=O)CCC(=O)O[C@H]1CC[C@@]2(C)C(=CC[C@H]3[C@@H]4CC[C@H]([C@H](C)CCCC(C)C)[C@@]4(C)CC[C@@H]32)C1)C(N)=O)[C@@H](C)CC)[C@@H](C)CC)C(C)C"}, "B5": {"name": "Compound 28 (peptide)", "peptide": "Ac-DEFDASISQVNEKINQSLEEIRKSDELLHNEAAAKK([Suc-Succinyl(4-O-cholesteryl)])-NH2"}, "B6": {"name": "Compound 41 (peptide)", "peptide": "Ac-WDEFDKKIEEVNKKIEESLKKIEESDKKLEEVNEAAAKK([Suc-Succinyl(4-O-cholesteryl)])-NH2"}, "B7": {"name": "Compound 17 (peptide)", "peptide": "Ac-DEFDKKIEEVNKKIEESLKKIEESDKKLEAAAKK(Succinyl(4-O-cholesteryl))-NH2"}, "B8": {"name": "Compound 21 (peptide)", "peptide": "Ac-DEFDKKIEEVNKKIEESLKKIEESDKKLEEVEAAAKK([Suc-Succinyl(4-O-cholesteryl)])-NH2"}, "B9": {"name": "Compound 16 (peptide)", "peptide": "Ac-SDEFDKKIEEVNKKIEESLKKIEESDKKLEAAAKK([Suc-Succinyl(4-O-cholesteryl)])-NH2"}, "B10": {"name": "Compound 43 (peptide)", "peptide": "Ac-WDEFDASIEEVNRRIEESLRRIEESDRRLEEVEAAAKK([Suc-Succinyl(4-O-cholesteryl)])-NH2"}, "B11": {"name": "Compound 13 (peptide)", "peptide": "Ac-WDEFDKKIEEVNKKIEESLKKIEESDKKLEAAAKK([Suc-Succinyl(4-O-cholesteryl)])-NH2"}}, "note": "*1 amine or outer side, *2 acyl side, *3 side chain or, on linkers, in order; H or OH if unused. Side-chain parts run from the residue outwards. The star is where a group is joined. Succinyl(4-O-cholesteryl) = CC(C)CCC[C@@H](C)[C@H]1CC[C@H]2[C@@H]3CC=C4C[C@@H](OC(=O)CCC(=O)*)CC[C@]4(C)[C@H]3CC[C@]12C; Suc = O=C(CCC(=O)[*:2])[*:1]"}
{"target": "F protein of RSV A long virus strain (Respiratory Syncytial Virus (RSV) A …, UniProt P12568 26-574)", "sequence (P12568 26-574)": "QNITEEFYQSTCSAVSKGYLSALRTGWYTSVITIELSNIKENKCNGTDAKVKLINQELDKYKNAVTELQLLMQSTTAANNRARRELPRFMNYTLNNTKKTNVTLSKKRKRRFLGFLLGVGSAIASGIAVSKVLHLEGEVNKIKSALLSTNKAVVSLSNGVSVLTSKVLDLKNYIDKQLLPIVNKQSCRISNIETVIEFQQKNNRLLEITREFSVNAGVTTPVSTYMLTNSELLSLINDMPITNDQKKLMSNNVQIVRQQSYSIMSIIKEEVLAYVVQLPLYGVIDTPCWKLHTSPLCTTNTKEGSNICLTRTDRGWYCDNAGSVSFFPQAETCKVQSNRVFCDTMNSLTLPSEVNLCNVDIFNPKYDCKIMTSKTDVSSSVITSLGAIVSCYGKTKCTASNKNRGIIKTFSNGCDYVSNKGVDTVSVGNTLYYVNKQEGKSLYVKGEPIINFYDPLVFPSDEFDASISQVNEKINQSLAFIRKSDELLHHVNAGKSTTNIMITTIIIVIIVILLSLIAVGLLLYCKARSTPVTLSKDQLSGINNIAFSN", "test": "cell-based or functional assay", "units": {"IC50/nM, plaque reduction, RSV A long on HEp-2 cells (Table 2, Cell fusion inhibition activity)": "nM"}}
{"binder": "B1", "IC50/nM, plaque reduction, RSV A long on HEp-2 cells (Table 2, Cell fusion inhibition activity)": 28.7}
{"binder": "B2", "IC50/nM, plaque reduction, RSV A long on HEp-2 cells (Table 2, Cell fusion inhibition activity)": 15.1}
{"binder": "B3", "IC50/nM, plaque reduction, RSV A long on HEp-2 cells (Table 2, Cell fusion inhibition activity)": 19.8}
{"binder": "B4", "IC50/nM, plaque reduction, RSV A long on HEp-2 cells (Table 2, Cell fusion inhibition activity)": 12.2}
{"binder": "B5", "IC50/nM, plaque reduction, RSV A long on HEp-2 cells (Table 2, Cell fusion inhibition activity)": 12.4}
{"binder": "B6", "IC50/nM, plaque reduction, RSV A long on HEp-2 cells (Table 2, Cell fusion inhibition activity)": 14.8}
{"binder": "B7", "IC50/nM, plaque reduction, RSV A long on HEp-2 cells (Table 2, Cell fusion inhibition activity)": 17.6}
{"binder": "B8", "IC50/nM, plaque reduction, RSV A long on HEp-2 cells (Table 2, Cell fusion inhibition activity)": 14.6}
{"binder": "B9", "IC50/nM, plaque reduction, RSV A long on HEp-2 cells (Table 2, Cell fusion inhibition activity)": 10.3}
{"binder": "B10", "IC50/nM, plaque reduction, RSV A long on HEp-2 cells (Table 2, Cell fusion inhibition activity)": 18.3}
{"binder": "B11", "IC50/nM, plaque reduction, RSV A long on HEp-2 cells (Table 2, Cell fusion inhibition activity)": 13}
{"target": "F protein of hMPV virus strain B1 (human metapneumovirus (hMPV) B1)", "test": "cell-based or functional assay", "units": {"EC50 (nM), plaque reduction, hMPV B1 on Vero cells": "nM"}}
{"binder": "B1", "EC50 (nM), plaque reduction, hMPV B1 on Vero cells": 38.1}
{"binder": "B2", "EC50 (nM), plaque reduction, hMPV B1 on Vero cells": 5.95}
{"binder": "B3", "EC50 (nM), plaque reduction, hMPV B1 on Vero cells": 4.27}
{"binder": "B4", "EC50 (nM), plaque reduction, hMPV B1 on Vero cells": 13.1}
{"binder": "B5", "EC50 (nM), plaque reduction, hMPV B1 on Vero cells": 13.8}
{"binder": "B6", "EC50 (nM), plaque reduction, hMPV B1 on Vero cells": 9.46}
{"binder": "B7", "EC50 (nM), plaque reduction, hMPV B1 on Vero cells": 3.61}
{"binder": "B8", "EC50 (nM), plaque reduction, hMPV B1 on Vero cells": 4.92}
{"binder": "B9", "EC50 (nM), plaque reduction, hMPV B1 on Vero cells": 4.5}
{"binder": "B10", "EC50 (nM), plaque reduction, hMPV B1 on Vero cells": 8.01}
{"binder": "B11", "EC50 (nM), plaque reduction, hMPV B1 on Vero cells": 6.18}
{"target": "F protein of hMPV virus strain A2 (human metapneumovirus (hMPV) A2)", "test": "cell-based or functional assay", "units": {"EC50 (nM), plaque reduction, hMPV A2 on Vero cells": "nM"}}
{"binder": "B1", "EC50 (nM), plaque reduction, hMPV A2 on Vero cells": 86.4}
{"binder": "B2", "EC50 (nM), plaque reduction, hMPV A2 on Vero cells": 13.3}
{"binder": "B3", "EC50 (nM), plaque reduction, hMPV A2 on Vero cells": 7.47}
{"binder": "B4", "EC50 (nM), plaque reduction, hMPV A2 on Vero cells": 200}
{"binder": "B5", "EC50 (nM), plaque reduction, hMPV A2 on Vero cells": 58.6}
{"binder": "B6", "EC50 (nM), plaque reduction, hMPV A2 on Vero cells": 11.7}
{"binder": "B7", "EC50 (nM), plaque reduction, hMPV A2 on Vero cells": 8.78}
{"binder": "B8", "EC50 (nM), plaque reduction, hMPV A2 on Vero cells": 11.2}
{"binder": "B9", "EC50 (nM), plaque reduction, hMPV A2 on Vero cells": 7.35}
{"binder": "B10", "EC50 (nM), plaque reduction, hMPV A2 on Vero cells": 16.8}
{"binder": "B11", "EC50 (nM), plaque reduction, hMPV A2 on Vero cells": 11.7}
{"target": "F protein of hPIV Type 3 (hPIV3 C243) (human Parainfluenza Virus type 3 (hPIV3 …))", "test": "cell-based or functional assay", "units": {"EC50 (nM), plaque reduction, hPIV3 C243 on LLC-MK2 cells": "nM"}}
{"binder": "B1", "EC50 (nM), plaque reduction, hPIV3 C243 on LLC-MK2 cells": 29.4}
{"binder": "B2", "EC50 (nM), plaque reduction, hPIV3 C243 on LLC-MK2 cells": 34.8}
{"binder": "B3", "EC50 (nM), plaque reduction, hPIV3 C243 on LLC-MK2 cells": 59.5}
{"binder": "B4", "EC50 (nM), plaque reduction, hPIV3 C243 on LLC-MK2 cells": 36.3}
{"binder": "B5", "EC50 (nM), plaque reduction, hPIV3 C243 on LLC-MK2 cells": 54.4}
{"binder": "B6", "EC50 (nM), plaque reduction, hPIV3 C243 on LLC-MK2 cells": 71.1}
{"binder": "B7", "EC50 (nM), plaque reduction, hPIV3 C243 on LLC-MK2 cells": 52.6}
{"binder": "B8", "EC50 (nM), plaque reduction, hPIV3 C243 on LLC-MK2 cells": 21.3}
{"binder": "B9", "EC50 (nM), plaque reduction, hPIV3 C243 on LLC-MK2 cells": 59}
{"binder": "B10", "EC50 (nM), plaque reduction, hPIV3 C243 on LLC-MK2 cells": 16.1}
{"binder": "B11", "EC50 (nM), plaque reduction, hPIV3 C243 on LLC-MK2 cells": 35.6}
